Tests used:
[1] = target: T1, EtgA residues 18–152 with C-terminal 6xHis-tag (enteropathogenic Escherichia coli); assay: differential scanning fluorimetry
T1 chain: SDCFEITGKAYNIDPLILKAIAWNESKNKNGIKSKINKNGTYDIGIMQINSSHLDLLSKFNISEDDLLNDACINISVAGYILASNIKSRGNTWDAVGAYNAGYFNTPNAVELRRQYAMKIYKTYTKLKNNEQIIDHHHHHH

[2] = target: T1, EtgA residues 18–152 with C-terminal …; assay: MST

Q: How did the “increase in Tm of EtgA (250 and 500 μM peptide)” value [1] turn out when TAGVSSPEQVLIEEIKKRHLAT [EscI peptide comprising EscI residues 66–87] was run?
A: Its value is 2 °C.

Q: And the Kd [2]?
A: The Kd was 385 ± 35 µM.
